PMC9482650, “Quantitative fragmentomics allow affinity mapping of interactomes” (Nature Communications, 2022)

T1: ARHGAP21, Q5T5U3
T1 sequence (Q5T5U3 45-169, limits assumed, looked up): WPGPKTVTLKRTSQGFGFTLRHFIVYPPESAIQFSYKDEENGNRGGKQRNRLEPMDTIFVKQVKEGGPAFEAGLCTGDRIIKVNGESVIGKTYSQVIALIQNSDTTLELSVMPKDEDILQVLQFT

T2: PCLO, Q9Y6V0
T2 sequence (Q9Y6V0 4491-4600, limits assumed, looked up): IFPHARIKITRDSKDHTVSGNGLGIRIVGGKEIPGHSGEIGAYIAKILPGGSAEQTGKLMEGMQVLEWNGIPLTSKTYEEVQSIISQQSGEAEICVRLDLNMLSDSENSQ

T3: PDZD7_3, Q9H5P4
T3 sequence (Q9H5P4 857-944, limits assumed, looked up): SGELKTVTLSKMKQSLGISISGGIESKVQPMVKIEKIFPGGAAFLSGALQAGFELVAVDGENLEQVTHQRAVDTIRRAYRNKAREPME

T4: MPDZ_5, O75970
T4 sequence (O75970 695-796, limits assumed, looked up): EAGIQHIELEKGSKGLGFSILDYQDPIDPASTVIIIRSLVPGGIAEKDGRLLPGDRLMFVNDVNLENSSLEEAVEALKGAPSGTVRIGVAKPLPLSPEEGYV

T5: PTPN13_1, Q12923
T5 sequence (Q12923 1088-1188, limits assumed, looked up): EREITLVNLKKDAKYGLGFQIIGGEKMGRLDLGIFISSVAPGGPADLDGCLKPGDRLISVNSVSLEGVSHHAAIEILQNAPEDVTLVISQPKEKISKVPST

T6: LIN7A, O14910
T6 sequence (O14910 103-200, limits assumed, looked up): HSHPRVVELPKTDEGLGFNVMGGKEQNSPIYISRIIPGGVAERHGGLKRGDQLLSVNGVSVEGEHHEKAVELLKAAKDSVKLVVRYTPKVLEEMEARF

T7: LRRC7, Q96NW7
T7 sequence (Q96NW7 1440-1537, limits assumed, looked up): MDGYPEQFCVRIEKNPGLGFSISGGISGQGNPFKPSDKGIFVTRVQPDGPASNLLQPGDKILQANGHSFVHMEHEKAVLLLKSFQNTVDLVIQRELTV

T8: SYNJ2BP, P57105
T8 sequence (P57105 8-110, limits assumed, looked up): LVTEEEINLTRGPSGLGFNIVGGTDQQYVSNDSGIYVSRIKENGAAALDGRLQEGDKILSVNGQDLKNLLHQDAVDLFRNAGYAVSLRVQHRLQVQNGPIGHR

T9: PARD3B_1, Q8TEW8
T9 sequence (Q8TEW8 196-299, limits assumed, looked up): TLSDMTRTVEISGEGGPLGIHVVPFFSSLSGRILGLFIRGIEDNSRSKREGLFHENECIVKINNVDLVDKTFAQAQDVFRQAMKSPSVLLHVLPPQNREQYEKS

T10: RAPGEF6, Q8TEU7
T10 sequence (Q8TEU7 525-625, limits assumed, looked up): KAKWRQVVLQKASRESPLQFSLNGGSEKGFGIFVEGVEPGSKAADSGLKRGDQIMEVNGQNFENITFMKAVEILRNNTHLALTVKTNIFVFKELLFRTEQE

T11: SNTB1, Q13884
T11 sequence (Q13884 107-205, limits assumed, looked up): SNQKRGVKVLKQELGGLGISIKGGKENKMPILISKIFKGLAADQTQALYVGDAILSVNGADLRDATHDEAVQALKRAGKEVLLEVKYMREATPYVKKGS

T12: SIPA1L2, Q9P2F8
T12 sequence (Q9P2F8 945-1036, limits assumed, looked up): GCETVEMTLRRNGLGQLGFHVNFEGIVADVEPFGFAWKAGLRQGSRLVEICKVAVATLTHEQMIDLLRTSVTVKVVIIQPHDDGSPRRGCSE


Target: T1, ARHGAP21, Q5T5U3
Assay: holdup assay
Parameters: key: below the threshold = too weak to quantify, mostly under pKd 3.1 to 4
Details: plain residues with an end cap or a label only (N-terminal biotin on a linker: ttds)

Binder | pKd
FHPLGADSQV [SLC2A1, P11166] | below the threshold
SGSRPSATVV [HPV73-E6, Q82005] | below the threshold

Target: GRID2IP_1, A4D2P6
Assay: holdup assay
Parameters: key: below the threshold = too weak to quantify, mostly under pKd 3.1 to 4
Details: plain residues with an end cap or a label only (N-terminal biotin on a linker: ttds)

Sequence of GRID2IP_1, A4D2P6 (A4D2P6 1-87): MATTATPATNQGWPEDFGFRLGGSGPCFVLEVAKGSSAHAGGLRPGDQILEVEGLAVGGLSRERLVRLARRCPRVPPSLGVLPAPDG

Binder | pKd
FHPLGADSQV [SLC2A1, P11166] | below the threshold
SGSRPSATVV [HPV73-E6, Q82005] | below the threshold

Target: T2, PCLO, Q9Y6V0
Assay: holdup assay
Parameters: key: below the threshold = too weak to quantify, mostly under pKd 3.1 to 4
Details: plain residues with an end cap or a label only (N-terminal biotin on a linker: ttds)

Binder | pKd
FHPLGADSQV [SLC2A1, P11166] | below the threshold
SGSRPSATVV [HPV73-E6, Q82005] | below the threshold

Target: T3, PDZD7_3, Q9H5P4
Assay: holdup assay
Parameters: key: below the threshold = too weak to quantify, mostly under pKd 3.1 to 4
Details: plain residues with an end cap or a label only (N-terminal biotin on a linker: ttds)

Binder | pKd
FHPLGADSQV [SLC2A1, P11166] | below the threshold
SGSRPSATVV [HPV73-E6, Q82005] | 4.7

Target: T4, MPDZ_5, O75970
Assay: holdup assay
Parameters: key: below the threshold = too weak to quantify, mostly under pKd 3.1 to 4
Details: plain residues with an end cap or a label only (N-terminal biotin on a linker: ttds)

Binder | pKd
FHPLGADSQV [SLC2A1, P11166] | below the threshold
SGSRPSATVV [HPV73-E6, Q82005] | 3.53

Target: Inadl_10, Q8NI35
Assay: holdup assay
Parameters: key: below the threshold = too weak to quantify, mostly under pKd 3.1 to 4
Details: plain residues with an end cap or a label only (N-terminal biotin on a linker: ttds)

Sequence of Inadl_10, Q8NI35 (Q8NI35 1673-1763): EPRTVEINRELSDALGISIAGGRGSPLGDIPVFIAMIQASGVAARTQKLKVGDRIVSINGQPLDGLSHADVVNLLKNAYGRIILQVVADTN

Binder | pKd
FHPLGADSQV [SLC2A1, P11166] | below the threshold
SGSRPSATVV [HPV73-E6, Q82005] | below the threshold

Target: DLG2_2, Q15700
Assay: holdup assay
Parameters: key: below the threshold = too weak to quantify, mostly under pKd 3.1 to 4
Details: plain residues with an end cap or a label only (N-terminal biotin on a linker: ttds)

Binder | pKd
FHPLGADSQV [SLC2A1, P11166] | 3.65
SGSRPSATVV [HPV73-E6, Q82005] | 4.03

Target: HTRA1, Q92743
Assay: holdup assay
Parameters: key: below the threshold = too weak to quantify, mostly under pKd 3.1 to 4
Details: plain residues with an end cap or a label only (N-terminal biotin on a linker: ttds)

Sequence of HTRA1, Q92743 (Q92743 360-477): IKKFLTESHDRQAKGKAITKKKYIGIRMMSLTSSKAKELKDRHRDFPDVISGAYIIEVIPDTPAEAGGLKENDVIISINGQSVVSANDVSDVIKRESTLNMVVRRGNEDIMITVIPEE

Binder | pKd
FHPLGADSQV [SLC2A1, P11166] | below the threshold
SGSRPSATVV [HPV73-E6, Q82005] | 3.9

Target: T5, PTPN13_1, Q12923
Assay: holdup assay
Parameters: key: below the threshold = too weak to quantify, mostly under pKd 3.1 to 4
Details: plain residues with an end cap or a label only (N-terminal biotin on a linker: ttds)

Binder | pKd
FHPLGADSQV [SLC2A1, P11166] | below the threshold
SGSRPSATVV [HPV73-E6, Q82005] | 3.61

Target: T6, LIN7A, O14910
Assay: holdup assay
Parameters: key: below the threshold = too weak to quantify, mostly under pKd 3.1 to 4
Details: plain residues with an end cap or a label only (N-terminal biotin on a linker: ttds)

Binder | pKd
FHPLGADSQV [SLC2A1, P11166] | below the threshold
SGSRPSATVV [HPV73-E6, Q82005] | below the threshold

Target: DLG1_3, Q12959
Assay: holdup assay
Parameters: key: below the threshold = too weak to quantify, mostly under pKd 3.1 to 4
Details: plain residues with an end cap or a label only (N-terminal biotin on a linker: ttds)

Sequence of DLG1_3, Q12959 (Q12959 457-571): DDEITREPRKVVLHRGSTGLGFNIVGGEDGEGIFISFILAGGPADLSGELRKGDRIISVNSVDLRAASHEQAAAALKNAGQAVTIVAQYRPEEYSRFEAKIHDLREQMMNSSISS

Binder | pKd
FHPLGADSQV [SLC2A1, P11166] | below the threshold
SGSRPSATVV [HPV73-E6, Q82005] | below the threshold

Target: GOPC, Q9HD26
Assay: holdup assay
Parameters: key: below the threshold = too weak to quantify, mostly under pKd 3.1 to 4
Details: plain residues with an end cap or a label only (N-terminal biotin on a linker: ttds)

Binder | pKd
FHPLGADSQV [SLC2A1, P11166] | below the threshold
SGSRPSATVV [HPV73-E6, Q82005] | 3.59

Target: T7, LRRC7, Q96NW7
Assay: holdup assay
Parameters: key: below the threshold = too weak to quantify, mostly under pKd 3.1 to 4
Details: plain residues with an end cap or a label only (N-terminal biotin on a linker: ttds)

Binder | pKd
FHPLGADSQV [SLC2A1, P11166] | below the threshold
SGSRPSATVV [HPV73-E6, Q82005] | 3.54

Target: T8, SYNJ2BP, P57105
Assay: holdup assay
Parameters: key: below the threshold = too weak to quantify, mostly under pKd 3.1 to 4
Details: plain residues with an end cap or a label only (N-terminal biotin on a linker: ttds)

Binder | pKd
FHPLGADSQV [SLC2A1, P11166] | 4.46
SGSRPSATVV [HPV73-E6, Q82005] | 3.71

Target: GRIP2_7, Q9C0E4
Assay: holdup assay
Parameters: key: below the threshold = too weak to quantify, mostly under pKd 3.1 to 4
Details: plain residues with an end cap or a label only (N-terminal biotin on a linker: ttds)

Sequence of GRIP2_7, Q9C0E4 (Q9C0E4 934-1023): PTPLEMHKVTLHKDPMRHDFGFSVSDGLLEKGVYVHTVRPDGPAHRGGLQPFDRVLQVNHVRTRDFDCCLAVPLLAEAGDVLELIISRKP

Binder | pKd
FHPLGADSQV [SLC2A1, P11166] | below the threshold
SGSRPSATVV [HPV73-E6, Q82005] | 3.56

Target: FRMPD2_2, Q68DX3
Assay: holdup assay
Parameters: key: below the threshold = too weak to quantify, mostly under pKd 3.1 to 4
Details: plain residues with an end cap or a label only (N-terminal biotin on a linker: ttds)

Sequence of FRMPD2_2, Q68DX3 (Q68DX3 944-1038): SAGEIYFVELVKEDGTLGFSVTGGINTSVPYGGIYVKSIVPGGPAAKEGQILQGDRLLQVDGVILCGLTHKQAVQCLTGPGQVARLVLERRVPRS

Binder | pKd
FHPLGADSQV [SLC2A1, P11166] | below the threshold
SGSRPSATVV [HPV73-E6, Q82005] | below the threshold

Target: GRIP2_3, Q9C0E4
Assay: holdup assay
Parameters: key: below the threshold = too weak to quantify, mostly under pKd 3.1 to 4
Details: plain residues with an end cap or a label only (N-terminal biotin on a linker: ttds)

Sequence of GRIP2_3, Q9C0E4 (Q9C0E4 238-339): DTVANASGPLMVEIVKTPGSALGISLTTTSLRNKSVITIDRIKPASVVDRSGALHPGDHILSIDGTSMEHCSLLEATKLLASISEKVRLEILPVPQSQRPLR

Binder | pKd
FHPLGADSQV [SLC2A1, P11166] | below the threshold
SGSRPSATVV [HPV73-E6, Q82005] | below the threshold

Target: GIPC2, Q8TF65
Assay: holdup assay
Parameters: key: below the threshold = too weak to quantify, mostly under pKd 3.1 to 4
Details: plain residues with an end cap or a label only (N-terminal biotin on a linker: ttds)

Sequence of GIPC2, Q8TF65 (Q8TF65 112-203): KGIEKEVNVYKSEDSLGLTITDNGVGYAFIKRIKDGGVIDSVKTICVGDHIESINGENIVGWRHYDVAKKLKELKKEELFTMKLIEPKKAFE

Binder | pKd
FHPLGADSQV [SLC2A1, P11166] | 3.5
SGSRPSATVV [HPV73-E6, Q82005] | 3.62

Target: T9, PARD3B_1, Q8TEW8
Assay: holdup assay
Parameters: key: below the threshold = too weak to quantify, mostly under pKd 3.1 to 4
Details: plain residues with an end cap or a label only (N-terminal biotin on a linker: ttds)

Binder | pKd
FHPLGADSQV [SLC2A1, P11166] | below the threshold
SGSRPSATVV [HPV73-E6, Q82005] | below the threshold

Target: DLG2_3, Q15700
Assay: holdup assay
Parameters: key: below the threshold = too weak to quantify, mostly under pKd 3.1 to 4
Details: plain residues with an end cap or a label only (N-terminal biotin on a linker: ttds)

Binder | pKd
FHPLGADSQV [SLC2A1, P11166] | below the threshold
SGSRPSATVV [HPV73-E6, Q82005] | 3.61

Target: T10, RAPGEF6, Q8TEU7
Assay: holdup assay
Parameters: key: below the threshold = too weak to quantify, mostly under pKd 3.1 to 4
Details: plain residues with an end cap or a label only (N-terminal biotin on a linker: ttds)

Binder | pKd
FHPLGADSQV [SLC2A1, P11166] | below the threshold
SGSRPSATVV [HPV73-E6, Q82005] | 3.57

Target: T11, SNTB1, Q13884
Assay: holdup assay
Parameters: key: below the threshold = too weak to quantify, mostly under pKd 3.1 to 4
Details: plain residues with an end cap or a label only (N-terminal biotin on a linker: ttds)

Binder | pKd
FHPLGADSQV [SLC2A1, P11166] | 3.64
SGSRPSATVV [HPV73-E6, Q82005] | below the threshold

Target: DLG4_3, P78352
Assay: holdup assay
Parameters: key: below the threshold = too weak to quantify, mostly under pKd 3.1 to 4
Details: plain residues with an end cap or a label only (N-terminal biotin on a linker: ttds)

Sequence of DLG4_3, P78352 (P78352 306-403): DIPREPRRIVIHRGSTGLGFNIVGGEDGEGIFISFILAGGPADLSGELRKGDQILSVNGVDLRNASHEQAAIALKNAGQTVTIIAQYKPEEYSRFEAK

Binder | pKd
FHPLGADSQV [SLC2A1, P11166] | below the threshold
SGSRPSATVV [HPV73-E6, Q82005] | below the threshold

Target: T12, SIPA1L2, Q9P2F8
Assay: holdup assay
Parameters: key: below the threshold = too weak to quantify, mostly under pKd 3.1 to 4
Details: plain residues with an end cap or a label only (N-terminal biotin on a linker: ttds)

Binder | pKd
FHPLGADSQV [SLC2A1, P11166] | below the threshold
SGSRPSATVV [HPV73-E6, Q82005] | below the threshold

Target: DLG1_2, Q12959
Assay: holdup assay
Parameters: key: below the threshold = too weak to quantify, mostly under pKd 3.1 to 4
Details: plain residues with an end cap or a label only (N-terminal biotin on a linker: ttds)

Sequence of DLG1_2, Q12959 (Q12959 314-412): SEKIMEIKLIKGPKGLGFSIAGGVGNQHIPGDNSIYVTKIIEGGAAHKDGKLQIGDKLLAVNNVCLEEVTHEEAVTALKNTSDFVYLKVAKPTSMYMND

Binder | pKd
FHPLGADSQV [SLC2A1, P11166] | 3.88
SGSRPSATVV [HPV73-E6, Q82005] | 4.3
